Laboratory results published in US20130274692A1, “SUBCONJUCTIVAL IMPLANT FOR POSTERIOR SEGMENT DRUG DELIVERY” (priority 2010, published 2013).
In brackets after ≈: the same amount, converted by molar mass. Like-named read-outs stand apart in the source and are kept apart here.

How the values were obtained:
[1] = Solubility of triamcinolone acetonide; format: physicochemical; conditions: saline or isotonic; 37 C in 0.2 M potassium chloride
Procedure: Consider a device with 10 uL reservoir volume loaded with 0.4 mg using a commercial drug product (40 mg/mL triamcinolone acetonide). […] The target release rate is 1 ug/day based upon published clinical data. As an example, consider the 0.2 media grade stainless steel characterized in Example 8 with P/F=0.12 and a thickness of 0.5 mm. […] This could be achieved with a cylindrical device having an inner diameter of 2 mm and a length of porous tubing of 1 mm. Alternatively, the end of the device could be a porous cup with height of 0.8 mm (0.5 mm thick porous face plus 0.3 mm length) of porous tubing.

[2] = cited from earlier work
[3] = human eye (Lucentis package insert); listed as ranibizumab; cited from earlier work
[4] = tested on: laser photocoagulation treatment-induced Grade IV choroidal neovascularization (CNV) lesions; conditions: intravitreal injection, all doses tested; cited from earlier work

Molecule | solubility [1] [µg/mL] | Half-life ([2]; monkey model (Gaudreault et al.), parameter of Simulations 1-5) [h] | half-life in the vitreous ([2]; rabbit and monkey, listed as ranibizumab) | half-life in the vitreous [3] [h] | development of Grade IV CNV lesions [4]
CC1(C)O[C@@H]2C[C@H]3[C@@H]4CCC5=CC(=O)C=C[C@]5(C)[C@@]4(F)[C@@H](O)C[C@]3(C)[C@]2(C(=O)CO)O1 [triamcinolone acetonide] | 19 (≈ 43.7 µM) |  |  |  | 
ranibizumab [Lucentis] |  | 63.1 | approximately 3 days | ~220 | completely inhibited
